# How the values were obtained:
# Assay in all cases: cell-based or functional assay
# [1] = target: HIV-1 92BR020 Env (pseudovirus) (HIV-1)
# [2] = target: HIV-1 Env of isolate MGRM-G-013 (HIV-1)
# [3] = target: HIV-1 Env of isolate MGRM-A-008 (subtype A) (HIV-1)
# [4] = target: HIV-1 envelope glycoprotein (Env) of isolate MGRM-C-006 (HIV-1)
# [5] = target: HIV-1 Env of isolate MG RM-D-011 (HIV-1)
# [6] = target: HIV-1 Env of isolate JR-CSF (pseudovirus) (HIV-1) (UniProt P20871)
# [7] = target: HIV-1 Env of pseudovirus isolate MGRM-G-024 (HIV-1)
# [8] = target: HIV-1 Env of isolate MGRM-A-007 (subtype A) (HIV-1)
# [9] = target: HIV-1 Env of isolate MGRM-F1-015 (HIV-1)
# [10] = target: HIV-1 Env of isolate MGRM-F1-020 (HIV-1)
# [11] = target: HIV-1 Env of isolate MGRM-D-012 (pseudovirus) (HIV-1)
# [12] = target: HIV-1 Env of isolate JR-CSF (subtype B pseudovirus) (HIV-1) (UniProt P20871)
# [13] = target: HIV-1 Env of isolate MGRM-Chronic-B-024 (subtype B pseudovirus) (HIV-1)
# [14] = target: HIV-1 Env of isolate 92UG001 (pseudovirus) (HIV-1)
# [15] = target: HIV-1 Env of isolate 6535.3 (subtype B pseudovirus) (HIV-1)
# [16] = target: HIV-1 Env of isolate MGRM-Chronic-B-020 (subtype B pseudovirus) (HIV-1)
# [17] = target: HIV-1 Env of isolate 98IN022 (HIV-1)
# [18] = target: HIV-1 Env of isolate MGRM-D-005 (pseudovirus) (HIV-1)
# [19] = target: HIV-1 Env of isolate MGRM-D-001 (clade D), on pseudovirus (HIV-1)
# [20] = target: HIV-1 Env of isolate THR0.18 (subtype B pseudovirus) (HIV-1)
# [21] = target: HIV-1 JRCSF envelope glycoprotein (Env) on pseudovirus (HIV-1) (UniProt P20871)
# [22] = target: HIV-1 envelope glycoprotein (Env) of isolate MGRM-A-013, clade A (HIV-1)
# [23] = target: HIV-1 Env of isolate MGRM-D-028 (clade D pseudovirus) (HIV-1)
# [24] = target: HIV-1 Env of isolate 93MW959 (clade C) (HIV-1 isolate 93MW959)
# [25] = target: HIV-1 Env of isolate APV_6, clade B, on pseudovirus (HIV-1)
# [26] = target: HIV-1 Env of pseudovirus MGRM-AG-003 (clade CRF_AG) (HIV-1)
# [27] = target: HIV-1 Env of pseudovirus MGRM-Chronic-B-023 (HIV-1)
# [28] = target: HIV-1 Env of pseudovirus MGRM-AE-002 (clade CRF01_AE) (HIV-1)
# [29] = target: HIV-1 Env of pseudovirus MGRM-F1-016 (HIV-1)
# [30] = target: HIV-1 envelope glycoprotein (Env) of isolate 92RW008, clade A (HIV-1)
# [31] = target: HIV-1 Env of isolate MGRM-D-005 (clade D pseudovirus) (HIV-1)
# [32] = target: HIV-1 APV-17 envelope glycoprotein (Env) on pseudovirus (HIV-1)
# [33] = target: HIV-1 Env of pseudovirus MGRM-G-011 (HIV-1, clade G isolate MGRM-G-011)
# [34] = target: HIV-1 Env of isolate VLGCA1 (clade A pseudovirus) (HIV-1)
# [35] = target: HIV-1 Env of pseudovirus MGRM-F1-014 (HIV-1)
# [36] = target: HIV-1 Env of isolate MGRM-D-020 (clade D pseudovirus) (HIV-1)
# [37] = target: HIV-1 Env of pseudovirus MGRM-G-009 (clade G) (HIV-1)
# Chain of 5329_C19 (PGT-136) (antibody) (VH): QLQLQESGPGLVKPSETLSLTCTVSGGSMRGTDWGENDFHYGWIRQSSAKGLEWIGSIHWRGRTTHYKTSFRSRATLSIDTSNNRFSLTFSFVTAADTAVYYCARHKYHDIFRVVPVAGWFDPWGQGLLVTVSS
# Chain of 5329_C19 (PGT-136) (antibody) (VL): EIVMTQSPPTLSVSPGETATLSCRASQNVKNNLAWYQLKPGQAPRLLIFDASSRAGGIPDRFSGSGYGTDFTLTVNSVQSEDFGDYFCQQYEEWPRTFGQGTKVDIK
# Chain of 4970_K22 (PGT-144) (antibody) (VH): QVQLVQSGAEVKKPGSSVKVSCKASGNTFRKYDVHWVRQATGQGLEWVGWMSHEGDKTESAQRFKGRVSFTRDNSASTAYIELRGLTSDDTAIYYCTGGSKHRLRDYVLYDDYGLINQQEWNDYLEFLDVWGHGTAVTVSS
# Chain of 4970_K22 (PGT-144) (antibody) (VL): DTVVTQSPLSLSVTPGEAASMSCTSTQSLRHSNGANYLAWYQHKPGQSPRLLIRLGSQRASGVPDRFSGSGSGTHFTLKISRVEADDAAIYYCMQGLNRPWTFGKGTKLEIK
# Chain of 4980_N08 (PGT-143) (antibody) (VH): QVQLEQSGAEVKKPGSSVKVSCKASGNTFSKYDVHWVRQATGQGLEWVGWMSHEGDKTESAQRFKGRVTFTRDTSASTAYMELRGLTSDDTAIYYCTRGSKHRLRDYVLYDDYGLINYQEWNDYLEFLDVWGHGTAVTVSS
# Chain of 4980_N08 (PGT-143) (antibody) (VL): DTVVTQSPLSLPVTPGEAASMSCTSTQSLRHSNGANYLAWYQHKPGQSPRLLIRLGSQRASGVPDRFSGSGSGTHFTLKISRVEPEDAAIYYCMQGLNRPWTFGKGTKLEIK
# Chain of 4995_E20 (PGT-142) (antibody) (VH): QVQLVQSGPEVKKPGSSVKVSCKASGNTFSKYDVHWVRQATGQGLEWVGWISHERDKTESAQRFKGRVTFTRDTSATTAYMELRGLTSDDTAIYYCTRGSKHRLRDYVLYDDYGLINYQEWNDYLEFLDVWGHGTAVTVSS
# Chain of 4995_E20 (PGT-142) (antibody) (VL): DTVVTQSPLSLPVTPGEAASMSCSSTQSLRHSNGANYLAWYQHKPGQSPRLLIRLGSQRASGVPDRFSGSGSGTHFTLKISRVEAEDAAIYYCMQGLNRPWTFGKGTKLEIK
substance,measurement,setting,value
4980_N08 (PGT-143) (antibody),neutralization IC50 (pseudovirus),[1],> 10 µg/mL
same,"IC50 (µg/mL), pseudovirus neutralization",[2],> 50 µg/mL
4995_E20 (PGT-142) (antibody),neutralization IC50 (pseudovirus),[1],> 10 µg/mL
same,"IC50 (µg/mL), pseudovirus neutralization",[2],> 50 µg/mL
5114_A19 (PGT-128) (antibody),"IC50 (µg/mL), pseudovirus neutralization",[3],> 50 µg/mL
same,"IC50 (µg/mL), pseudovirus neutralization",[4],0.014 µg/mL
same,"IC50 (µg/mL), pseudovirus neutralization",[5],0.007 µg/mL
same,Polyclonal Transfectant Neutralization Index,[6],136
same,Primary Neutralization Index (B cell culture supernatant),[6],77.5
same,"IC50 (µg/mL), pseudovirus neutralization",[7],0.095 µg/mL
same,"IC50 (µg/mL), pseudovirus neutralization",[8],> 50 µg/mL
VRC01 (antibody),IC50,[9],0.387 µg/mL
same,IC50,[5],0.075 µg/mL
same,"IC50 (µg/mL), pseudovirus neutralization",[2],0.553 µg/mL
same,IC50,[10],1.89 µg/mL
PGV04 (antibody),"IC50 (µg/mL), pseudovirus neutralization",[2],0.168 µg/mL
4877_D15 (PGT-122) (antibody),"IC50 (µg/mL), pseudovirus neutralization",[9],31.4 µg/mL
same,"IC50, pseudovirus neutralization",[11],> 50 µg/mL
same,"IC50 (µg/mL), pseudovirus neutralization",[12],0.057 µg/mL
same,neutralization IC50 (pseudovirus),[1],0.0337 µg/mL
same,"IC50 (µg/mL), pseudovirus neutralization",[13],2.31 µg/mL
same,"IC50, pseudovirus neutralization",[14],> 50 µg/mL
same,"IC50 (µg/mL), pseudovirus neutralization",[15],0.006 µg/mL
same,"IC50 (µg/mL), pseudovirus neutralization",[16],0.005 µg/mL
same,neutralization IC50,[17],0.032 µg/mL
same,"IC50 (µg/mL), pseudovirus neutralization",[7],0.033 µg/mL
same,"IC50, pseudovirus neutralization",[18],> 50 µg/mL
same,"IC50, pseudovirus neutralization",[19],0.867 µg/mL
same,"IC50 (µg/mL), pseudovirus neutralization",[20],> 50 µg/mL
same,"IC50 (µg/mL), pseudovirus neutralization",[10],0.321 µg/mL
4970_K22 (PGT-144) (antibody),neutralization IC50 (pseudovirus),[1],> 10 µg/mL
same,"IC50 (µg/mL), pseudovirus neutralization",[2],> 50 µg/mL
5329_C19 (PGT-136) (antibody),"IC50 (µg/mL), pseudovirus neutralization",[3],> 50 µg/mL
same,neutralization IC50 (pseudovirus),[1],> 10 µg/mL
same,"IC50 (µg/mL), pseudovirus neutralization",[4],> 50 µg/mL
same,"IC50 (µg/mL), pseudovirus neutralization",[5],> 50 µg/mL
same,Primary Neutralization Index (B cell culture supernatant),[6],0.9
same,"IC50 (µg/mL), pseudovirus neutralization",[7],0.152 µg/mL
same,"IC50, pseudovirus neutralization",[19],> 10 µg/mL
same,"IC50 (µg/mL), pseudovirus neutralization",[8],> 50 µg/mL
1496_C09 (PG9) (TCN-109) (antibody),"IC50, pseudovirus neutralization",[21],< 0.0025 µg/mL
same,IC90 (pseudovirus neutralization),[21],< 0.0025 µg/mL
same,"IC50 (µg/ml), pseudovirus neutralization",[22],0.16 µg/mL
same,"IC50 (µg/ml), pseudovirus neutralization",[23],4.39 µg/mL
same,"IC50 (µg/ml), pseudovirus neutralization",[24],0.04 µg/mL
same,"IC50 (µg/ml), pseudovirus neutralization",[25],0.12 µg/mL
same,IC50,[26],9.71 µg/mL
same,"IC50 (µg/ml), pseudovirus neutralization",[27],0.04 µg/mL
same,IC50,[28],0.04 µg/mL
same,"IC50 (µg/ml), pseudovirus neutralization",[29],0.58 µg/mL
same,"IC50 (µg/ml), pseudovirus neutralization",[30],0.01 µg/mL
same,"IC50 (µg/ml), pseudovirus neutralization",[31],0.59 µg/mL
same,"IC50, pseudovirus neutralization",[32],26.4 µg/mL
same,"IC50 (µg/ml), pseudovirus neutralization",[33],0.19 µg/mL
same,"IC50 (µg/ml), pseudovirus neutralization",[34],0.07 µg/mL
same,"IC50 (µg/ml), pseudovirus neutralization",[35],0.01 µg/mL
same,"IC50 (µg/ml), pseudovirus neutralization",[36],2.03 µg/mL
same,IC50,[37],4.9 µg/mL

# Source: patent US20250320281A1
